According to patent US8247535B2, “Directed evolution of GRG31 EPSP synthase enzyme” (Athenix Corp., priority 2008, dated 2012):
Substitutions are numbered along the chain they refer to. Names may count otherwise.

Columns and labels:
[1] = system: GRG36; conditions: for fold higher thermostability at 37° C. than wild-type GRG36: relative to wild-type GRG36
Protocol: Following induction, each GRG36 protein variant was purified by affinity chromatography to a cobalt resin (Novagen). The purified proteins were tested for enzymatic activity following heating for 0, 4 and 6 hours at 37° C.

[2] = system: GRG36; assay: Kinetic constants of GRG36 enzymes (Km, Ki, Vmax); assay type: biochemical; conditions: for Km: substrate phosphoenolpyruvate; for Ki: glyphosate, (−)x-intercept of Kobs vs. glyphosate concentration
Protocol: The syngrg36 DNA library was transformed into E. coli strain BL21*DE3 star (Invitrogen) for induction of protein expression. Following transformation, individual colonies were plated on 1×M63 medium containing 25 mM glyphosate to select for clones that had retained enzymatic activity and growth tolerance. Individual colonies were picked and arrayed into 384-well plates to create a mutagenized library for enzymatic activity screening. Two 384-well plates were created in this manner. Enzymatic activity screening was carried out as follows. Library clones were pinned into 96-well blocks containing LB medium and were grown to A600=0.6. IPTG was then added (0.5 mM) and the blocks were incubated overnight at 20° C. to induce protein expression. Next, protein extracts were prepared from individual cultures using POPCULTURE® reagent (Novagen) and the enzymatic activity was measured as disclosed in U.S. patent application Ser. No. 11/651,752, filed Jan. 10, 2007, herein incorporated by reference in its entirety. […] These 6 were selected for further characterization.
Additionally, enzymatic assays were carried out to calculate the kinetic constants for substrate binding affinity (Km), glyphosate binding (Ki) and enzymatic rate (Vmax). Briefly, each enzyme was titrated with the substrate phosphoenolpyruvate and the linear enzymatic rate was plotted versus the substrate concentration. This plot was fit to the Michaelis-Menton equation to calculate the substrate concentration that produced one-half of the maximal rate (Km), and the maximal rate obtained at saturating substrate was divided by the enzyme concentration to yield Vmax. Next, additional substrate titrations were carried out at various glyphosate concentrations, and the apparent binding constant at each glyphosate concentration (Kobs) was plotted against the glyphosate concentration to yield a straight line. The Ki was measured as (−)x-intercept.

[3] = molecular target: GRG31 EPSP synthase; assay: Kinetic analysis of GRG31 variants (Ki for glyphosate, Km for PEP, Vmax); assay type: biochemical; design: Vmax: unit not given here; conditions: for Ki: Ki for glyphosate, calculated from plot of Km(app) vs. glyphosate concentration; for Km: Km for PEP; for Vmax: unit not given
Protocol: GRG31 variants L3P2b11, L3P2c11 and L4e11, and L5e3 were characterized by enzymatic assays as described herein, and compared to the native GRG31 enzyme. For each enzyme the apparent Km (Km(app)) was determined at each of several glyphosate concentrations, and a plot of Km(app) vs. glyphosate concentration was used to calculate the Ki for each enzyme. The thermostability for each enzyme was assessed by incubating the enzyme at 37° C. for 16 hours, and then quantifying the enzymatic activity remaining (as Vmax) vs. control enzyme that was incubated at 4° C.

[4] = system: GRG31 EPSP synthase; assay: Thermostability of purified GRG31 variant proteins (4 hrs at 37° C.); assay type: biochemical; conditions: in words
Protocol: GRG31 variants L3P2b11, L3P2c11 and L4e11, and L5e3 were characterized by enzymatic assays as described herein, and compared to the native GRG31 enzyme. For each enzyme the apparent Km (Km(app)) was determined at each of several glyphosate concentrations, and a plot of Km(app) vs. glyphosate concentration was used to calculate the Ki for each enzyme. […]
Three variants (6b2, 6e7, and the triple EK (N95S A206V E215K; SEQ ID NO:20)) were grown, their proteins purified, and the thermostability of the proteins analyzed in more detail.

[5] = system: GRG31 EPSP synthase; assay: Thermostability of extracts of GRG31 point mutants at 37° C.; assay type: biochemical; conditions: for thermostability of extracts of error prone PCR clones: extracts of 95 clones, in words
Protocol: To improve the thermostability of GRG31, error prone PCR mutagenesis of GRG31 was performed. Forty-five thousand (45,000) clones were plated onto 50 mM glyphosate, and ninety-five (95) clones were picked.
To further investigate the contributions of various substitutions in these positions, several point mutations were generated at positions corresponding to amino acid positions 95, 206, and 215 of GRG31. Extracts of point mutants were tested for thermostability at 37° C.: […]

[6] = system: GRG31 EPSP synthase; assay type: biochemical
Protocol: The thermostability of several variants of GRG31 was analyzed by measuring survival of activity at 37° C.

[7] = system: BL21*DE3 cells; assay: Glyphosate growth screen on agar plates; assay type: cell-based, E. coli; conditions: 1×M63 minimal medium; 0.05 mM IPTG; expression construct pAX1945
Text: A glyphosate growth screen was developed. […] Library 1 was cloned into pAX1945 between the MfeI and AlwN1 restriction sites.
Clone pAX3625 contains a grg31 variant having an in-frame stop codon that disrupts the GRG31 open reading frame.

[8] = extracts of point mutants, Table 8
[9] = extracts, separate experiment, Table 9

B1: GRG36(ace7): GRG36 protein variant, SEQ ID NO:27, encoded by syngrg36(ace7) (protein)
chain: MKNQNFDAKARSPWTPLKGVNKISVSPSKGRINGTVTIPGSKSLTNRALIISSLASGKSKVQGILKSDDSFWCLDSLKKLGVNVKIQGDIAFIEGNGGKWESGDLYIGAAGTIARFLPGALAVSGTGIWELEASKSMSKRPISPQVDALKELGAEITYLSDQGYYPLLVKGKQLNGGEVELSGRISSQFISGLLIASPYLNDPIKINIKDHIVQHSYVLLTLELMKKFGAKVKYDSSLKEIVVYPSKYTPQDINLEADVSTACYFLALAAVTNGKVQIDNLTYETKQPDIKMVDILERMGCKVTRGSSFIEIEGVSQLKGGFEISMREMSDQVLTLAAIAPFADEPITIKDVEHIRHHESNRISVLVDSLSRLGIIVEEFKDGLKVYPGNPKATLLDTHDDHRVAMALSLIGSRVEGIQINDPGCVSKTCPQYFELLEKLGLNIIKH
modifications: GRG36 variant (GRG36(ace7))
Half-life at 37° C. [1]: 18.8 h | fold higher thermostability at 37° C. than wild-type GRG36 [1]: 7.5 fold | Vmax [2]: 1.8 nmol/min/µg | activity at 1 mM glyphosate compared with GRG36 ([2]; 1 mM glyphosate): very similar activity | Km [2]: 9.8 µM

B2: GRG36(ace8): GRG36 protein variant, SEQ ID NO:28, encoded by syngrg36(ace8) (protein)
chain: B1 chain with I90T, Q145L, K350T, L410M
modifications: GRG36 variant (GRG36(ace8))
Half-life at 37° C. [1]: 7.3 h | fold higher thermostability at 37° C. than wild-type GRG36 [1]: 2.5 fold | Vmax [2]: 6.8 nmol/min/µg | Ki [2]: 435 µM | Km [2]: 11 µM

B3: GRG36: wild-type GRG36 EPSP synthase, SEQ ID NO:4 (protein)
chain: B1 chain with I90T, Q145L
modifications: derived from organism isolated from soil
Half-life at 37° C. [1]: 2.5 h | Vmax [2]: 8 nmol/min/µg | Ki [2]: 421 µM | Km [2]: 6.3 µM

B4: 6b2: GRG31 variant N95→S, A206→V, SEQ ID NO:18 (protein)
chain: MNQQVITLTHPSKKIQGTVQLTGSKSESNRALIIQSLSKGQVEIANLSEAADTVTLNRVLQIASDPKPGFNTIDIGPAGTAMRFLTAYLNLVKGSFILTGTERMQQRPIGILVDAMKEIGADIHYDKKVGYPPLKIEGGLFQEKDRVKIKGNISSQYISALLLIAPALKKGLTLEIEGELTSRPYVSMTLDMLKSVGIQHEWKNNVIKIAPQAFEKQTIYVEPDWSAASYWYAIAALADANASIVLPGLRKNSLQGDIAIISIMEHFGVQSSFESDGLHLNKKVIGSDVSLFNFKECPDLAQTVVVVAAALKRDVSFTGLETLKIKETDRIAALQKEIAKFGAELIEDGDTYHLKTAQVYQPEEVTFDTYEDHRMAMAFAPLALVFDQIKIAEPQVVEKSYPDFWNHLQAQAFVIE
modifications: GRG31 variant (clone 6b2)
Ki [3]: 92 µM | Km [3]: 6.5 µM | improvement in Km for PEP relative to GRG31 ([3]; relative to GRG31, in words): improved (lower) | Vmax [3]: 34 | thermostability compared to wild-type GRG31 [4]: increased thermostability | thermostability of extracts of error prone PCR clones [5]: increased thermostability | Percent of Wt GRG31 activity (4 hrs at 37° C.) [5, 8]: 228% | Percent of Wt GRG31 activity (4 hrs at 37° C.) [5, 9]: 139%

B5: Triple EK: GRG31 variant N95S A206V E215K, SEQ ID NO:20 (protein)
chain: B4 chain with E215K
modifications: GRG31 variant (triple EK)
Ki [3]: 48.2 µM | Km [3]: 7.2 µM | improvement in Km for PEP relative to GRG31 ([3]; relative to GRG31, in words): improved (lower) | Vmax [3]: 33 | thermostability compared to wild-type GRG31 [4]: increased thermostability

B6: GRG31: native (wild-type) GRG31 EPSP synthase, SEQ ID NO:2 (protein)
chain: B4 chain with S95N, V206A
Ki [3]: 73 µM | Km [3]: 23 µM | Vmax [3]: 29.3 | t1/2 at 37° C. [6]: 2.7 h | glyphosate concentration of agar plates on which cells grow [7]: up to 50 mM

B7: 6e7: GRG31 variant E215→K, SEQ ID NO:19 (protein)
chain: B4 chain with S95N, V206A, E215K
modifications: GRG31 variant (clone 6e7)
Ki [3]: 111 µM | Km [3]: 3.4 µM | Vmax improvement over GRG31 ([3]; relative to GRG31): 2 fold | Vmax relative to GRG31 ([3]; relative to GRG31, in words): improved | improvement in Km for PEP relative to GRG31 ([3]; relative to GRG31, in words): improved (lower) | Vmax [3]: 62 | thermostability compared to wild-type GRG31 [4]: increased thermostability | thermostability of extracts of error prone PCR clones [5]: increased thermostability | Percent of Wt GRG31 activity (4 hrs at 37° C.) [5, 8]: 213% | Percent of Wt GRG31 activity (4 hrs at 37° C.) [5, 9]: 152%
